Test [1] has as its target T1, biotinylated 10-mer C-terminal PBM peptide of DGKζ (human, UniProt Q13574, biotin attached to the N-terminus via a trioxatridecan-succinamic acid (ttds) linker). The test is described as follows: nHU-MS, printed as pKapp 4.98.
Test [2] addresses T1, biotinylated 10-mer C-terminal PBM …. The test can be described thus: nHU-MS, printed as pKapp 4.96.
The target is the same in test [3]. The test can be described thus: nHU-MS, printed as pKapp 5.71.
Test [4] shares this target. The test is described as follows: nHU-MS, printed as pKapp 5.01.

By Kd is commonly meant the equilibrium constant for the complex coming apart.

T1 sequence (Q13574 whole entry, looked up, tested part not stated): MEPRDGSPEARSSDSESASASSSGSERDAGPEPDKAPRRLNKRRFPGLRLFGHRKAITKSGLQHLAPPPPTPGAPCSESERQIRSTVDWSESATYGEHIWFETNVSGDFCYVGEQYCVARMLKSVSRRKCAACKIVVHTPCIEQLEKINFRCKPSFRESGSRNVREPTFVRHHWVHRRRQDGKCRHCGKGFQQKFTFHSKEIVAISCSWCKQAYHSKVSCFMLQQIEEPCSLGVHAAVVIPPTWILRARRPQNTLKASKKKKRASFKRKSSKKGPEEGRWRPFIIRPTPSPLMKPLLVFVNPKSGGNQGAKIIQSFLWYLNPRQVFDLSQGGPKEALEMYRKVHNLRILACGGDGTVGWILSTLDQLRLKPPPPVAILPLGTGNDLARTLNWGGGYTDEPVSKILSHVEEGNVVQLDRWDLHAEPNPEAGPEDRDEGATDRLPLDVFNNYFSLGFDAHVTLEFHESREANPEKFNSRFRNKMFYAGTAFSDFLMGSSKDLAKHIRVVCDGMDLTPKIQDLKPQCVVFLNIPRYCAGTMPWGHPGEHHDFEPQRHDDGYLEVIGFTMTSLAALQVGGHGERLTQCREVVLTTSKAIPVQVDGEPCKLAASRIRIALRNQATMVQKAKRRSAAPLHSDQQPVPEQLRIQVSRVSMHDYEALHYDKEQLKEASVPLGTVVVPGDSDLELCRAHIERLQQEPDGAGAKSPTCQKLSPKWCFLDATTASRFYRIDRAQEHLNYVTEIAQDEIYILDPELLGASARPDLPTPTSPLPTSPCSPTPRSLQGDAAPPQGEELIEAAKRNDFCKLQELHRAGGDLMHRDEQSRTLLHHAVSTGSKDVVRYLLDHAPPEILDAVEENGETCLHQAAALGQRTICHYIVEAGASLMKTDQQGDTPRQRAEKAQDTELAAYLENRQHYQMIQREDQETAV

B1: CASK (natural protein)
chain: MADDDVLFEDVYELCEVIGKGPFSVVRRCINRETGQQFAVKIVDVAKFTSSPGLSTEDLKREASICHMLKHPHIVELLETYSSDGMLYMVFEFMDGADLCFEIVKRADAGFVYSEAVASHYMRQILEALRYCHDNNIIHRDVKPHCVLLASKENSAPVKLGGFGVAIQLGESGLVAGGRVGTPHFMAPEVVKREPYGKPVDVWGCGVILFILLSGCLPFYGTKERLFEGIIKGKYKMNPRQWSHISESAKDLVRRMLMLDPAERITVYEALNHPWLKERDRYAYKIHLPETVEQLRKFNARRKLKGAVLAAVSSHKFNSFYGDPPEELPDFSEDPTSSGLLAAERAVSQVLDSLEEIHALTDCSEKDLDFLHSVFQDQHLHTLLDLYDKINTKSSPQIRNPPSDAVQRAKEVLEEISCYPENNDAKELKRILTQPHFMALLQTHDVVAHEVYSDEALRVTPPPTSPYLNGDSPESANGDMDMENVTRVRLVQFQKNTDEPMGITLKMNELNHCIVARIMHGGMIHRQGTLHVGDEIREINGISVANQTVEQLQKMLREMRGSITFKIVPSYRTQSSSCERDSPSTSRQSPANGHSSTNNSVSDLPSTTQPKGRQIYVRAQFEYDPAKDDLIPCKEAGIRFRVGDIIQIISKDDHNWWQGKLENSKNGTAGLIPSPELQEWRVACIAMEKTKQEQQASCTWFGKKKKQYKDKYLAKHNAVFDQLDLVTYEEVVKLPAFKRKTLVLLGAHGVGRRHIKNTLITKHPDRFAYPIPHTTRPPKKDEENGKNYYFVSHDQMMQDISNNEYLEYGSHEDAMYGTKLETIRKIHEQGLIAILDVEPQALKVLRTAEFAPFVVFIAAPTITPGLNEDESLQRLQKESDILQRTYAHYFDLTIINNEIDETIRHLEEAVELVCTAPQWVPVSWVY
In test [1], B1 yielded a Kd of 10.5 µM.

B2: SYNJ2BP (natural protein)
chain: MNGRVDYLVTEEEINLTRGPSGLGFNIVGGTDQQYVSNDSGIYVSRIKENGAAALDGRLQEGDKILSVNGQDLKNLLHQDAVDLFRNAGYAVSLRVQHRLQVQNGPIGHRGEGDPSGIPIFMVLVPVFALTMVAAWAFMRYRQQL
Molecule B2 had a Kd in test [2] of 11 µM.

B3: MAGI3 (natural protein)
chain: MSKTLKKKKHWLSKVQECAVSWAGPPGDFGAEIRGGAERGEFPYLGRLREEPGGGTCCVVSGKAPSPGDVLLEVNGTPVSGLTNRDTLAVIRHFREPIRLKTVKPGKVINKDLRHYLSLQFQKGSIDHKLQQVIRDNLYLRTIPCTTRAPRDGEVPGVDYNFISVEQFKALEESGALLESGTYDGNFYGTPKPPAEPSPFQPDPVDQVLFDNEFDAESQRKRTTSVSKMERMDSSLPEEEEDEDKEAINGSGNAENRERHSESSDWMKTVPSYNQTNSSMDFRNYMMRDETLEPLPKNWEMAYTDTGMIYFIDHNTKTTTWLDPRLCKKAKAPEDCEDGELPYGWEKIEDPQYGTYYVDHLNQKTQFENPVEEAKRKKQLGQVEIGSSKPDMEKSHFTRDPSQLKGVLVRASLKKSTMGFGFTIIGGDRPDEFLQVKNVLKDGPAAQDGKIAPGDVIVDINGNCVLGHTHADVVQMFQLVPVNQYVNLTLCRGYPLPDDSEDPVVDIVAATPVINGQSLTKGETCMNPQDFKPGAMVLEQNGKSGHTLTGDGLNGPSDASEQRVSMASSGSSQPELVTIPLIKGPKGFGFAIADSPTGQKVKMILDSQWCQGLQKGDIIKEIYHQNVQNLTHLQVVEVLKQFPVGADVPLLILRGGPPSPTKTAKMKTDKKENAGSLEAINEPIPQPMPFPPSIIRSGSPKLDPSEVYLKSKTLYEDKPPNTKDLDVFLRKQESGFGFRVLGGDGPDQSIYIGAIIPLGAAEKDGRLRAADELMCIDGIPVKGKSHKQVLDLMTTAARNGHVLLTVRRKIFYGEKQPEDDSSQAFISTQNGSPRLNRAEVPARPAPQEPYDVVLQRKENEGFGFVILTSKNKPPPGVIPHKIGRVIEGSPADRCGKLKVGDHISAVNGQSIVELSHDNIVQLIKDAGVTVTLTVIAEEEHHGPPSGTNSARQSPALQHRPMGQSQANHIPGDRSALEGEIGKDVSTSYRHSWSDHKHLAQPDTAVISVVGSRHNQNLGCYPVELERGPRGFGFSLRGGKEYNMGLFILRLAEDGPAIKDGRIHVGDQIVEINGEPTQGITHTRAIELIQAGGNKVLLLLRPGTGLIPDHGDWDINNPSSSNVIYDEQSPLPPSSHFASIFEESHVPVIEESLRVQICEKAEELKDIVPEKKSTLNENQPEIKHQSLLQKNVSKRDPPSSHGHSNKKNLLKVENGVTRRGRSVSPKKPASQHSEEHLDKIPSPLKNNPKRRPRDQSLSPSKGENKSCQVSTRAGSGQDQCRKSRGRSASPKKQQKIEGSKAPSNAEAKLLEGKSRRIAGYTGSNAEQIPDGKEKSDVIRKDAKQNQLEKSRTRSPEKKIKRMVEKSLPSKMTNKTTSKEVSENEKGKKVTTGETSSSNDKIGENVQLSEKRLKQEPEEKVVSNKTEDHKGKELEAADKNKETGRFKPESSSPVKKTLITPGPWKVPSGNKVTGTIGMAEKRQ
With B3, the Kd in test [3] came to 1.95 µM. This lies in the single-digit micromolar range.

B4: LIN7C (natural protein)
chain: MAALGEPVRLERDICRAIELLEKLQRSGEVPPQKLQALQRVLQSEFCNAVREVYEHVYETVDISSSPEVRANATAKATVAAFAASEGHSHPRVVELPKTEEGLGFNIMGGKEQNSPIYISRIIPGGIADRHGGLKRGDQLLSVNGVSVEGEHHEKAVELLKAAQGKVKLVVRYTPKVLEEMESRFEKMRSAKRRQQT
Turning to B4, in test [4], binding was put at a Kd of 9.77 µM.

The values are drawn from doi:10.1101/2023.06.15.545061 (2023).
